Experimental findings from patent US12497460B2, “Anti-MSR1 antibodies and methods of use thereof” (REGENERON PHARMACEUTICALS, INC., priority 2018, dated 2025) are described below.

Assay [1] deals with T1, His9-hMSR1 (human MSR1 extracellular domain) (Homo sapiens, UniProt P21757).
T1 construct: human MSR1 extracellular domain expressed with a N-terminal nonahistidine tag; His9 (nonahistidine) (N); purchased R&D Systems 2708-MS
T1 sequence (P21757 77-451 limits assumed): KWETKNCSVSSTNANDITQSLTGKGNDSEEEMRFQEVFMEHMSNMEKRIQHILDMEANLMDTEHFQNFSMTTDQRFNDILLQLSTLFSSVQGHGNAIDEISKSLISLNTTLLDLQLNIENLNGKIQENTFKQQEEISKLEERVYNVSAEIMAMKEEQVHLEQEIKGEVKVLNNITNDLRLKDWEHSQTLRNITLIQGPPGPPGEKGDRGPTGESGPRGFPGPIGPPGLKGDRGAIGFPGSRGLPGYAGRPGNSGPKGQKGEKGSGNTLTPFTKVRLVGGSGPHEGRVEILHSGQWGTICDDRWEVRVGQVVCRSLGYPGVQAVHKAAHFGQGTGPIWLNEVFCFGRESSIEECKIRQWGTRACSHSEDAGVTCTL
The assay can be described thus: Biacore T200 surface plasmon resonance binding kinetics of anti-MSR1 antibody-drug conjugates and parental antibodies. The conditions noted are these: 25° C.; for kd: * = no dissociation observed, kd manually fixed at 1.00E−05. How it is done:
The MSR1 antibodies disclosed herein were conjugated to various liver X receptor (LXR) payloads or various steroid payloads. This example describes how equilibrium dissociation constant (KD) values for human MSR1 reagents binding to human anti-MSR1 antibody-drug conjugates and their corresponding unconjugated parental antibodies were determined using a real-time surface plasmon resonance-based Biacore T200 biosensor.
All binding studies were performed in 10 mM HEPES, 300 mM NaCl, 3 mM EDTA, and 0.05% v/v Surfactant Tween-20, pH 7.4 (HBS-ET) running buffer at 25° C. The Biacore CM4 sensor chip surface was first derivatized by amine coupling with the goat anti-human Fcγ specific polyclonal antibody (Jackson ImmunoResearch Laboratories, Cat #BR-1008-39) to capture anti-MSR1 monoclonal antibodies. Binding studies were performed on human MSR1 extracellular domain expressed with a N-terminal nonahistidine tag (His9-hMSR1; R&D Systems, Cat #2708-MS).
The association rate (ka) and dissociation rate (kd) were determined by fitting the real-time binding sensorgrams to a 1:1 binding model with mass transport limitation using Scrubber 2.0c curve-fitting software. Binding dissociation equilibrium constant (KD) and dissociative half-life (t½) were calculated from the kinetic rates as: […]
Binding kinetics parameters for His9-hMSR1 binding to different anti-MSR1 antibody-LXR ADCs and their unconjugated parental antibodies at 25° C. are shown in Table 19. “LP1” represents a linker-payload for which the payload structure is provided in Example 11.
The binding studies were repeated with anti-MSR1 antibody H1H21234-N297Q and steroid linker payloads (LPs). “LP3” represents a linker-payload for which the structure is provided in Example 23, and “LP13” represents a linker-payload for which the structure is provided in Example 24.

For assay [2], the system named is LXR (THP1/LXR-Luc cells). In words: LXR-luciferase reporter bioassay (Example 31). The format is cell-based, human. The conditions noted are these: 48 hours; for EC50: differentiated THP1/LXR-Luc cells; for S/N: signal to noise, ratio of RLU of standard one over standard eight. An excerpt:
Generation of assay cell line. To test the efficacy of anti-MSR1 antibody-LXR conjugates in vitro, a cell-based LXR responsive luciferase reporter assay was developed. To generate the assay cell line, a LXR regulated luciferase reporter gene [Cignal Lenti LXR Reporter (luc) kit (Qiagen, Cat #CLS-001 L)] was transduced into THP1 cells, and cells were selected for two weeks in puromycin. The lentivirus expresses the firefly luciferase gene under the control of a minimal CMV promoter and tandem repeats of the LXR transcriptional response element. The resulting cell line is referred to as THP1/LXR-Luc cells.
Assay protocol. THP1/LXR-Luc cells were seeded onto 96 well plates at 40,000 cells/well in media containing RPMI supplemented with 10% FBS and pencillin/streptomycin and subsequently differentiated with 200 nM Phorbol Myristate Acetate (PMA) for 3 days. After the 3-day differentiation period, three-fold serial dilutions of antibody drug conjugates, unconjugated antibodies, or free payloads in fresh media were added to the cells at final concentration ranging from 100 nM to 0.01 nM. Media alone served as a blank control. Forty-eight hours later, luciferase activity was determined after the addition of One-Glo™ reagent (Promega, Cat #E6130) to each well. Relative light units (RLUs) were measured on a Victor luminometer (PerkinElmer) and EC50 values were determined using a four-parameter logistic equation over a 10-point dose response curve (GraphPad Prism). The signal to noise (S/N) was determined by calculating the ratio of RLU of standard one over RLU of standard eight for each of the unconjugated anti-MSR1 antibodies or free payloads. “LP #” represents a linker-payload for which the corresponding structures are provided elsewhere herein, and “P #” represents a payload for which the corresponding structures are provided elsewhere herein.

Where [3] appears, read: Table 19, antibody-LXR ADCs and unconjugated antibodies.

B1: H1H27729P-N297Q-LP1 (conjugate)
VH: QVQLVESGGGLVKPGGSLRLSCAASGFIFSDYYMSWIRQAPGKGLEWVSYISSSGTTIYGDSVKGRFTMSRDNAKNSLYLQMNSLRAEDTAVYYCARNYALFDYWGQGTLVTVSS
VL: DIQMTQSPSSLSASVGDRVTITCQASQDISKYLNWYQQKPGKAPKLLIYYTSNLETGVPSRFSGSGSGTDFTFTISSLQPEDIATYYCHQSDYLPFTFGPGTKVDIKR
Regarding B1, the ka in assay [1] (setting [3]) worked out at 54700 M⁻¹ s⁻¹. Also, in assay [1] (Table 19), the kd came out at 0.000718 s⁻¹. Besides, in assay [2], the 50% effective concentration (EC50) worked out at 1.64 nM and the S/N amounted to 14.5.

B2: H1H27731P-N297Q-LP1 (conjugate)
VH: QLQLQESGPGLVKPSETLSLTCTVSGGSISRISYYWGWIRQPPGKGLEWIGSIYDSGSTYYNPSLKSRVTISIDTSKNQFSLKLSSVTAADTAVYYCVRYSSSSAFAFDYWGQGTLVTVSS
VL: DIQMTQSPSSVSASVGDRVTITCRASQGISSWLAWYQQKPGKAPKLLIYAASSLQSGVPSRFSGSGSGTDFTLTISSLQPEDFATYYCQQANSFPFTFGPGTKVDIKR
Turning to B2, in assay [1] (setting [3]), the ka came to 128000 M⁻¹ s⁻¹. Further, in assay [1] (Table 19), the kd is recorded as 1.00E−05* s^−1. In assay [2], the concentration for a half-maximal effect (EC50) turned out to be 1.46 nM and the S/N is 15.5.

B3: H1H27754P-N297Q-LP1 (conjugate)
VH: EVQLVESGGGLVQPGGSLRLSCAASGFTFRTYAMTWVRQAPGKGLDWVSAITGDGGNTYYADSVKGRFTISRDNSKNTLYLQMNSLRAEDTAIYYCAKDQRFSFALYYFDYWGQGTLVTVSS
VL: DIQMTQSPSSVSASVGDRVTITCRASQGISSWLAWYQQKPGNAPKLLIYAAFSLQSGVPSRFSGSGSGTDFTLTISSLQPEDFATYYCQQANNFPWTFGQGTKVEIKR
For B3, the ka in assay [1] (setting [3]) was determined as 177000 M⁻¹ s⁻¹. The kd in assay [1] (Table 19) is 1.00E−05* s^−1. Further, in assay [2], the EC50 was determined as 1.3 nM and the S/N was 17.3.

B4: H1H27747P-N297Q-LP1 (conjugate)
VH: QVQLVESGGAVVQPGRSLRLSCAASGFTFSYYGMHWVRQAPGKGLEWVAVISYDGSKKYYADSVKGRFTISRDNSKNTLYLQMNSLRAEDTAVYYCAKDLTVDFYYGMDVWGQGTTVTVSS
VL: DIQMTQSPSSVSASVGDRVTITCRASQGISSWLAWYQQKPGKAPKLLIYATSSLQSGAPSRFSGSGSGTDFTLTISSLQPEDFATYFCQQANSFPYTFGQGTKLEIKR
For the molecule B4, the ka in assay [1] (setting [3]) is 136000 M⁻¹ s⁻¹. The kd in assay [1] (Table 19) turned out to be 0.000203 s⁻¹. In addition, in assay [2], the concentration giving a half-maximal response (EC50) stood at 4.77 nM and the S/N amounted to 20.6.

B5: H1H27739P-N297Q-LP1 (conjugate)
VH: EVQLVESGGGLVQPGGSLRLSCTASGFTFSSYAMSWVRQAPGKGLEWVSAISGTGSSTYFTDSVKGRFAISRDNSKNTLYLQMNSLRAEDTAVYYCAKDGEWLSTVTLFDYWGQGTLVTVSS
VL: EIVMTQSPATLSVSPGERATLSCRASQSVSSNLAWYQQKPGQAPRLLIYGASTRATGIPARFSGSGSGTDFTLTISSLQSEDFALYYCQQYFIWPPHPTFGPGTKVDIKR
For the molecule B5, the ka in assay [1] (setting [3]) is 88800 M⁻¹ s⁻¹. In addition, the kd in assay [1] (Table 19) is 0.000722 s⁻¹. In addition, in assay [2], it took 1.6 nM to reach a half-maximal effect (EC50) and the S/N was found to be 21.0.

B6: H1H27734P-N297Q-LP1 (conjugate)
VH: EVQLVESRGGLVQPGGSLRLSCAASGFTFSSYAMSWVRQAPGKGLEWVSAISGSGGSTFYADSVKGRFTISRDNSKNTVYLQMNSLRAEDTAVYYCAKALVLRFLEWLGDYWGQGTLVTVSS
VL: DIQMTQSPSTLSASVGDRVTITCRASQSISSWLAWFQQKPGKAPKLLIYKASSLESGVPSRFSGSGSGTEFTLTISSLQPDDFATYYCQQYKSYWTFGQGTKVEIKR
For the molecule B6, in assay [1] (setting [3]), the ka is 69300 M⁻¹ s⁻¹. Moreover, the kd in assay [1] (Table 19) amounted to 0.000449 s⁻¹. Besides, in assay [2], the response was half-maximal at 5.19 nM (EC50) and the S/N is 17.8.

B7: H1H21234N-N297Q-LP3 (conjugate)
VH: QVQLQESGPGLVKPSETLSLTCTVTGGSISRNYWSWIRQPPGKGLEWIGYIYYSGSIDYNPSLKSRVTISVDTSKNQFSLKLSSMTAADTAVYYCARDRWNWKYGMDVWGQGTTVIVSS
VL: EIVLTQSPGTLSLSPGERATLSCRASQTVRNNYLAWYHQKPGQAPRLLIYGASSRATGIPDRFSGSGSGTDFTLTISRLEPEDFTVYYCHQYGNSPWTFGQGTKMEIKR
For the molecule B7, the ka in assay [1] (Table 20, antibody-steroid ADCs and unconjugated antibody) worked out at 417000 M⁻¹ s⁻¹. Besides, the kd in assay [1] (Table 20) was determined as 1e-05 s⁻¹.
